# Laboratory results as given in the nanobody polyreactivity screen of Harvey et al. (2022).
# Assay: yeast display, Sf9 membrane polyspecificity reagent, FACS + sequencing; frameworks hold sequencing errors
# How it was run: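 Polyreactivity labels are assigned by the sorting gate from which each nanobody was recovered. The gates were low and high (top ~1%), set on anti-HA fluorescence for expression and streptavidin fluorescence for reagent binding. Before sorting, galactose-induced (36–48 hours) yeast display cells were stained for 1 hour at 4 °C with 10% biotinylated, detergent-solubilized Sf9 membrane reagent.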
row,Sequence,polyreactivity (PSR sort gate)
1,QVQLVESGGGLVQAGGSLRLSCAASGSTLGRNAMGWYRQAPGKERELVAGIDGSAGSTYYADSVKGRFTISRDNAKNSVYLQMNSLKPEDTAVYYCNADVIDLDYDYWGQGTQVTVSS,low polyreactivity
2,KVQLVETGRGLVQAGGSLRISCAASGSTFGANAMVWYIQAPGKERELVAAITVRGGSTYYADSVKCRFTISRDNAKNNVYLQMISLKPEETAVYYCAARWACSTNSYYYWGQGTQVTVSS,high polyreactivity
3,QVQLVESGGGLVQAGGSLRISCAASGSTFGPYAMGWYRPAPGKERELVAAITKSGGRTYYADSVKGRFTISRDNAKNTVYLQMNSLKPEDTAVYYCAAYGSVGLEYWGQGTQVTVSS,high polyreactivity
4,QVKLVESGGGLVQAGGSLRLSCAPSARIFDIYPLGWSRQAPGKERELVAGITSVGSTNYADSVKGRFTISRDNAKYTVYLQMTSLNPEDTAVYDCASVTSVHSEVDYWGQGTQVTVSS,low polyreactivity
5,QVQLGESGGGLVQAGGSLRLSCAASGFTFVHNAMGWYRQAPGKERELVAAISSSGGRTYYADSVKGRFTISRDNAKNTVYLQMNSLKPDDTAVYYCATVNRYGPSYGYWGQGTHVTVSS,high polyreactivity
6,QVQLVESGGGLVQAGGSLRLSCAASGSTFDIYAMGWYRQAHGKERELVAVISGGEGSTYYADSVKGRFTISRDNAKNTVYLQMNSLKPEDTAVYYCAADYISPGYWDGEYDCWGQGTQVTVSS,low polyreactivity
7,QVQLVESGGGLVQAGGSLRLSCAASGSIFVGYAMGWYRQAPGKERELVAAISWSGDSTYYADSVKGRFTISRDNAKNTVYLQMNSLTPEDTAVYYCAVDYAEIGPRPEVEYDYWGQGTQVTVSS,low polyreactivity
8,QVQLVESGGALVQAGCSLRLSCAASGITFAPYAKGWYRQAPGKEREMVAGINTGGSTYYADSVKGRFTISRDNAKYTVYLQMNSLKPEDTADYYCATESYPADQDIPGSDYWGQGTQVTVSS,low polyreactivity
9,QVQLVESGGGLVQAGGSLRLSCAASGITFTRNAMGWYRQAPGKERELVAAISRRSGSTYYADSVKGRFTISRDNAKNTVYLQMNSLKPEDTAVYYCAATYSVHFVRYGYWGQGTQVTVSS,high polyreactivity
10,QVQLVESGGGLVQAGGSLRLSCAASGSTFFYYAMGWYRQAPGKERELVAAITRGSRTKYADSVKGRFTISRDNAKNTVYLQMNSLKPEDTAVYYCAARKNLYPYCYLWWQDYDYWVQGTQVTVSS,high polyreactivity
11,QVQLVESGGGLVQAGGSLRLSCAASGRTFKYNAMGWYRQAPGKERELVATISGSGGRTYYADSVKGRFTISRDNAKNTVYLQMNSLKPEDTAVYYCNAPRVKWLDWGQGTQVTVSS,high polyreactivity
12,QVQLVDSGGGLVQAGGSLRLSCAASGFTFDGYAMGWYRQAPGQEREFVATISLSGGSTYYADSVKGRCTISRDNAKNTVYLQMNSLNPEDTAVYYCGKDTQPYLIDGFEYWGQGTQVTVSS,low polyreactivity
13,QVQLVESGGGLVQAGGSLRLSCAASGFTFSAYTMGWYRQAPGKERELVAAINWSGANTYYADSVKGRFTISRDNAKNTVYLQMNSLKPEDTAVYYCNAEDDYTYDRSFGGYKYDYWGQGTQVTVSS,low polyreactivity
14,QVQLVDSAGGLVQAGGSLSLSCAASGITFVSKVMGWYRQAPGKEREFVAAITGRGDSTYADSVKGRFTNSRDNAKNCVYLQMNSLKPEDTAVYYCAAEYSVPYRGWDGYEYWGQGTQVTVSS,low polyreactivity
15,QVQLVESGGGLVQAGGSLRLSCAPSGSTFYPYAMGWYRQAPGKERELVAAISSGGSTYYADSVKGRFTISRDNAKNTVYLQMNSLKPEDTAVYYCAADFYYAYYWGQGTQVTVSS,low polyreactivity
16,QVQLVESGGGLVQAGGSLRLSCAASGSTYDPNAMGRYRQAPGKERELVAAISWSGGSTYYADSVKGRFTISRDNAKNTVYLQMYSLKPEDTAVSYCNAQFYDSYSYTNDYWGQGTLVTVSS,low polyreactivity
17,QVQLVESGGGLVQAGGSLRLSCAASGFTFYTYDMGWYRQAPGKERALVAAITSGVSTNYADSVKGRFTISRDNAKNTVYLQMNSLKPEDTAVYYCNKDVRPAYRWYDYWGQDTQVTVSS,low polyreactivity
